The values below come from publication PMC11655901, “Mass balance, metabolic disposition, and pharmacokinetics of a single IV dose of [14C]CA102N in HT-29 xenograft athymic nude mice” (Frontiers in Pharmacology, 2024).

Where only a bound is given, the exact number is not on record here.

The conditions of data set [1]: mouse, in vivo.
Method: Female BALB/c athymic (nu+/nu+) mice (n = 48) were generated by Taconic (Germantown, NY). Mice (18–22 g) were acclimated for at least 3 days before subcutaneous implantation of 1 × 10^7 HT-29 colorectal carcinoma (ATCC number HTB38) cells in 100 μL 50:50 matrigel: PBS. Tumors were allowed to grow to 200–500 mm^3 sizes before initiating the study. Each animal was assigned a permanent identification number, and identified with a tail mark before being placed on the study. Food and water were provided ad libitum. Animal rooms were controlled to maintain a temperature of 68°F–79°F, and 20%–70% relative humidity, with a 12 h light/12 h dark cycle. Observations were recorded for all animals pre-dose and at least once daily post-dose. Mice were randomized into 3 groups and housed (n = 3 per cage) in metabolism cages (Group 1, n = 9) or shoebox cages (Group 2, n = 29 and Group 3, n = 10). […] Urine, feces, cage residue, blood/plasma, tissue samples, and carcasses were collected from different groups for Mass Balance (MB), Metabolite Identification (MET-ID), Pharmacokinetics (PK), and Quantitative Whole-Body Autoradiography (QWBA) studies.
Samples were collected on days 0 through 10. […] Blood samples were collected via cardiac puncture (Group 2), into EDTA-containing tubes at 0 (pre-dose), 0.5, 2, 8, 24, 48, 72, 120,168, 240, and 336 h after the dose, and plasma samples were harvested on wet ice for PK analysis. […] The weights of all samples (except blood and plasma) were recorded and then stored at −70°C for later analysis.
Radioactivity in diluted formulations, plasma, and urine, was quantitated by mixing with a liquid scintillator, Ultima Gold scintillation cocktail (5 mL, PerkinElmer). Samples were analyzed by LSC for total radioactivity content.
Nominal times were used for pharmacokinetic calculations. Phoenix® WinNonlin®, (version 6.3, Pharsight Corporation, Mountain View, CA, United States) noncompartmental pharmacokinetic analysis was used to determine PK parameters [Maximal concentration (Cmax), Time of maximal concentration (Tmax), Terminal half-life (t1/2), area under the curve to infinity observed (AUCinf obs [µg equiv·h/g]), and area under the curve all observed points (AUCall [µg equiv·h/g])]. The acceptance criteria for the terminal half-life (t1/2) estimation used regression of at least three time points. […] Plasma concentrations are expressed as µg equivalents (equiv)/g (assume 1 mL = 1 g).
The next data set relates to HT-29 xenograft. Further details: method as in Lin et al., 2017. Conditions: 200 or 400 mg/kg weekly (QW) or three times a week (TIW); ref Lin et al., 2017; cited from earlier work.
The conditions of data set [2]: mouse, in vivo. This is another data set of the same source.
Method: Female BALB/c athymic (nu+/nu+) mice (n = 48) were generated by Taconic (Germantown, NY). Mice (18–22 g) were acclimated for at least 3 days before subcutaneous implantation of 1 × 10^7 HT-29 colorectal carcinoma (ATCC number HTB38) cells in 100 μL 50:50 matrigel: PBS. Tumors were allowed to grow to 200–500 mm^3 sizes before initiating the study. Each animal was assigned a permanent identification number, and identified with a tail mark before being placed on the study. Food and water were provided ad libitum. Animal rooms were controlled to maintain a temperature of 68°F–79°F, and 20%–70% relative humidity, with a 12 h light/12 h dark cycle. Observations were recorded for all animals pre-dose and at least once daily post-dose. Mice were randomized into 3 groups and housed (n = 3 per cage) in metabolism cages (Group 1, n = 9) or shoebox cages (Group 2, n = 29 and Group 3, n = 10). Each mouse received a single bolus injection of CA102N via the tail vein. Urine, feces, cage residue, blood/plasma, tissue samples, and carcasses were collected from different groups for Mass Balance (MB), Metabolite Identification (MET-ID), Pharmacokinetics (PK), and Quantitative Whole-Body Autoradiography (QWBA) studies.
Samples were collected on days 0 through 10. […] The weights of all samples (except blood and plasma) were recorded and then stored at −70°C for later analysis. […]
Radioactivity in diluted formulations, plasma, and urine, was quantitated by mixing with a liquid scintillator, Ultima Gold scintillation cocktail (5 mL, PerkinElmer). Samples were analyzed by LSC for total radioactivity content. […] The resulting 14CO2 liberated during combustion was trapped in CarboSorb® and Perma-Fluor® scintillation cocktail was added automatically to the samples before total radioactivity measurement by LSC.
All LSC analyses were performed using a liquid scintillation analyzer (Perkin Elmer Model 2800TR or Model 2900TR). […] Data were corrected to the background by subtracting the dpm value measured from the analysis of blank samples (cocktail only).
The nature of data set [3]: Quantitative Whole-Body Autoradiography (QWBA) tissue distribution of total radioactivity. It counts as in vivo, female BALB/c athymic (nu+/nu+) HT-29 xenograft mice. The method, then: Food and water were provided ad libitum.
Samples were collected on days 0 through 10.
The pinna, limbs, and tail were removed from each frozen carcass (Group 3) and the remaining carcass was embedded in an aqueous suspension of approximately 1% (w/v) carboxymethylcellulose and frozen into a block. The blocks were stored at approximately −20°C before sectioning. Each blocked carcass was mounted on a microtome stage (Leica CM3600 Cryomacrocut and/or a Vibratome 9800, Leica Corp., Nussloch, Germany) and maintained at approximately −20°C. Sections were collected and allowed to dry by sublimation in the cryomicrotome at −20°C for at least 48 h. A set of sections for each mouse was mounted on a cardboard backing, covered with a thin plastic wrap, and exposed along with calibration standards of [14C]-glucose mixed with blood at 10 different concentrations to a [14C]-sensitive phosphor imaging plate (Fuji Biomedical, Stamford, CT). The imaging plates and sections were placed in light-tight exposure cassettes, for a 4-day (96 h) exposure at room temperature. The imaging plates were scanned using the GE Healthcare Typhoon FLA 9500 image acquisition system (GE/Molecular Dynamics, Sunnyvale, CA, United States). Quantification was performed by image dosimetry using MCID image analysis software (Version 7.0, Interfocus Imaging Ltd., Linton, Cambridge, United Kingdom). A standard curve was constructed from the integrated response (MDC/mm2) and the nominal concentrations of the [14C]-calibration standards. The concentrations of radioactivity were expressed as the µg equivalents of CA102N per gram sample (µg equiv/g).
The following calculations were used to determine the µg equivalents/mL, or/g and % percent of dose in the tissue: µg equivalents/mL=µCi/mL/Specific Activity DosedµCi/mL µg equivalents/g=DPM of the sample×1/MassTissueg/Specific Activity of the radiolabeled moleculeDPM/g Percent of dose in tissue=µg eq in tissue×100/Specific Activity DosedμCi/μg
Autoradioluminographic image data were calibrated using response curves that were generated using a weighted, 1st-degree, polynomial, linear equation (1/MDC/mm^2). A numerical estimate of the goodness of fit was given by the relative error, where the absolute value for the relative error of each calibration standard must have been ≤0.250 to be accepted.
The LLOQ and ULOQ were set using calibration standard concentration values of 0.0003 and 20.973 μCi/g, respectively, which were widely proven values ([Kolbe and Dietzel, 2000]) that were verified during the QWBA system validation ([Solon and Lee, 2002]).

For data set [4] the following is noted: in vivo; cited from earlier work.
Data set [5] in a line: In vivo metabolite profiling (HPLC-MS with radio flow-through detector) of plasma, urine, feces, liver, tumor. Conditions: for free Nim or H-Nim in the biological samples evaluated: after [14C]CA102N 200 mg/kg IV.
Method: Samples were collected on days 0 through 10. […] The weights of all samples (except blood and plasma) were recorded and then stored at −70°C for later analysis.
Fecal and tissue homogenates were maintained at approximately −70°C for MET-ID analysis. The metabolite profiling in the biological samples from mice dosed with [14C]CA102N was performed by HPLC-tandem mass spectrometry coupled with a radio flow-through detector (RFD). The HPLC-MS/radio flow-through detector (RFD) consisted of a Shimadzu NexeraTM (Shimadzu, disseminated Japan) ultra-high pressure liquid chromatography system with two LC-30AD pumps, a SIL30AC autosampler, and a CTO-30A column oven; A Sciex TripleTOF 6600TM (Sciex, Framingham, MA) mass spectrometer; and a β-RAM Model 3 RFD. The mass spectrometer was controlled by Analyst TF 1.7TM (Sciex, Framingham, MA), and the RFD was controlled by Laura Lite 5TM (LabLogic Systems, Brandon, FL) software. The HPLC eluent was split between the RFD and mass spectrometer with a ratio of 3 to 1.
[14C]CA102N and its metabolites were separated using reverse-phase and hydrophilic interaction chromatography. Two HPLC methods were used to separate the metabolites and the parent molecule CA102N, using RFD and mass spectrometer simultaneously.
Retention times of the metabolites were determined from the radio-chromatograms. Mass spectra (MS and MS/MS) of metabolite standards (H-Nim, H-Nim Saccharide, H-Nim Disaccharide) were acquired and major fragment patterns were proposed. […] For other unknown metabolites, molecular ions were searched on LC-MS chromatograms at the same retention times as those found on an HPLC radio-chromatogram. The product/ion spectra were acquired for the corresponding molecular ions. Putative metabolite structures were proposed based on the analysis of their mass fragment patterns.
Data set [6] can be described thus: PK of the parent molecule H-Nim in mice (LCMS of serum). It counts as in vivo, female BALB/c athymic (nu+/nu+) mice. Conditions: 4.5 mg/kg IV. The method, then:
Female BALB/c athymic (nu+/nu+) mice (n = 5) were used in the study. Mice were treated with a single bolus injection of H-Nim via the tail vein at 4.5 mg/kg. The blood samples were collected at 5, 10, 30, 60, and 120 min after treatment. Mice were anesthetized and decapitated to obtain the blood samples. Serum supernatant was collected and stored at −80 until analysis.
PK samples were analyzed by LCMS analysis. The retention time of H-Nim was approximately 25.4 min on the extracted ion chromatogram (XIC) and the protonated molecule of H-Nim was at m/z 279.

“N-(4-Amino-2-phenoxyphenyl) methanesulfonamide-graft-poly (β-D-(1, 3) glucuronic acid-β-D-(1, 4)-N-acetylglucosamine) conjugate [CA102N]”: in data set [1], the “systemic plasma clearance (CL)” value was 0.2 mL/min/kg and the “volume of distribution at steady state (Vss)” value was 0.1 L/kg. Besides, in data set [1] (iv, 200 mg/kg), the “AUC 0-inf_obs” value turned out to be 18332.4 μg equiv/ml*h, the “AUC 0-t” value is given as 18329.2 μg equiv/ml*h, the “AUC 0-t/0-inf_obs” value was determined as 0.99 and the AUClast was 18,332.4 μg equiv/ml*h. In data set [1] (iv, 200 mg/kg), the “AUMC 0-inf_obs” value worked out at 161062.0 μg equiv/ml*h^2, the C0 is reported as 1985.6 μg equiv/ml, the Cl_obs is listed as 0.01 (mg)/(μg equiv/ml)/h and the Clast_obs/Cmax is listed as 5.5E-05. Moreover, in data set [1] (iv, 200 mg/kg), the Lambda_z was 0.03 h⁻¹, the “MRT 0-inf_obs” value is listed as 8.7 h, the Vss_obs is 0.09 (mg)/(μg/mL) and the Vz_obs was 0.3 (mg)/(μg equiv/ml). In data set [1] (iv, 200 mg/kg), the mean plasma radioactivity is recorded as 1.073 µg equivalents/mL. In the data set on HT-29 xenograft, the “tumor burden compared to vehicle-treated controls” value is listed as “significant reduction in tumor burden”. Further, in data set [2], the “cage rinses, wash, and wipe combined, percent of dose” value was found to be 20%; the “radioactivity elimination through urine, average percent of dose (abstract)” value worked out at 77%; the “total dose eliminated within the first 24 h” value was “Around 60%”. Further, in data set [3] (200 mg/kg IV), the “lowest relative tissue concentrations: white adipose, brain, spinal cord, bone tissue, eye lens, mammary gland region, skeletal muscle” value was less than 60 μg equiv/g. In data set [3] (mouse, in vivo), the “half-life of release of CA102N and its metabolites from tumor sites” value amounted to 74.2 h. Besides, in data set [3] (mouse, in vivo, iv, 200 mg/kg), the “tissue-to-blood ratio, Blood (cardiac)” value was determined as 1.00; the “total radioactivity, adrenal Gland” value is 429.979 μg equiv/g; the “total radioactivity, thyroid” value was determined as 469.62 μg equiv/g. For the same molecule, the hepatotoxicity entry in data set [4] was “absence of hepatotoxicity”.

`CS(=O)(=O)Nc1ccc([N+](=O)[O-])cc1Oc1ccccc1` [Nimesulide, reference compound]: the “free Nim or H-Nim in the biological samples evaluated” value in data set [5] was “No free Nim or H-Nim are determined”.

By half-life is commonly meant how long it takes for the measured level to halve. For the molecule `CS(=O)(=O)Nc1ccc(N)cc1Oc1ccccc1` [H-Nim], the “free Nim or H-Nim in the biological samples evaluated” value in data set [5] was “No free Nim or H-Nim are determined”. Besides, the half-life in data set [6] is given as less than 5 min. Further, the “serum concentration at any time point greater than 5 min” value in data set [6] (detection limit 0.1 μg/mL) is reported as “not detectable”. The serum concentration in data set [6] (5 min) was 142 ng/mL.

For the molecule `CC(=O)NC1C(O)OC(CO)C(O)C1OC1OC(C(=O)Nc2ccc(NS(C)(=O)=O)c(Oc3ccccc3)c2)C(O)C(O)C1O` (stereo not drawn) [M1], in data set [5] (Group 1, 200 mg/kg IV), the “excretion by component, Feces, percent of dose” value is 13.20% and the “excretion by component, Total, percent of dose” value amounted to 13.2%. Also, the “metabolite in fecal extracts” value in data set [5] (pooled 0 to 120 h) is reported as “primary metabolite”.

Regarding `CC(=O)NC1C(O)OC(CO)C(O)C1OC1OC(C(=O)Nc2ccc(NS(C)(=O)=O)c(Oc3ccccc3)c2)C(OC2OC(CO)C(O)C(OC3OC(C(=O)O)C(O)C(O)C3O)C2NC(C)=O)C(O)C1O` (stereo not drawn) [M1037], in data set [5] (240 h post-dose), the “metabolite in liver and tumor extracts” value is “dominant metabolite”. For the same molecule, in data set [5] (Group 1, 200 mg/kg IV), the “excretion by component, Liver + Tumor, percent of dose” value was 4.40% and the “excretion by component, Total, percent of dose” value was found to be 4.4%.
